Measured values taken from the supplement of paper PMC10266784.

B1: library; numbered along this chain (parent)
chain: MAAAAAAAAEQQSSNGPVKKSMREKAVERRSVNKEHNSNFKAGYIPIDEDRLHKTGLRGRKGNLAICVIILLFILAVINLIITLVIWAVIRIGPNGCDSMEFHESGLLRFKQVSDMGVIHPLYKSTVGGRRNENLVITGNNQPIVFQQGTTKLSVENNKTSITSDIGMQFFDPRTQNILFSTDYETHEFHLPSGVKSLNVQKASTERITSNATSDLNIKVDGRAIVRGNEGVFIMGKTIEFHMGGNMELKAENSIILNGSVMVSTTRLPSSSSGDQLGSGDWVRYKLCMCADGTLFKVQVTSQNMGCQISDNPCGNTH

Variants of: B1
Assay: SGCB cell-surface expression functional score (HA stain, bin4 vs bin1, normalised to synonymous) (log10 ratio); higher = more cell-surface SGCB (functional)
Summary of the method: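 Using lentivirus at MOI <0.1, HA-tagged, YFP-fused human beta-sarcoglycan codon-saturation libraries were put into HEK293 cells with stable alpha-, gamma- and delta-sarcoglycan expression, in duplicate transductions. YFP-positive cells were collected by sorting 72 hours later, grown 5–7 days, stained on ice with Alexa Fluor 647 anti-HA, fixed, sorted into four 5% intensity bins and amplicon-sequenced. The functional score takes the median, across codons and transductions, of the log ratio of highest-bin to lowest-bin variant frequency. Within each section, synonymous variants were scaled to mean 0, SD 0.5.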

SGCB cell-surface expression functional score (log10): each site, then its substitutions
V300: P -0.35 | C -0.27 | Q -1.07 | F -0.2 | G -0.65 | T 0.05 | D -0.2 | I -0.28 | S -0.35 | K -2.02 | L -1.14 | H -0.8 | A -0.02 | N -0.77 | E -0.69 | W -0.26 | Y -0.33 | M -1.6 | R -0.27
T301: G 0.13 | N -0.45 | Y 0.14 | I -0.29 | Q 0.16 | L -0.56 | M 0.86 | D 0.33 | A -0.27 | V -0.21 | K 0.28 | C 0.31 | W 0.96 | S -0.16 | R -0.14 | H -0.15 | F -0.72 | P -0.57 | E 0.06
C290: V -0.97 | Y -0.57 | Q -0.2 | M -0.16 | R -0.56 | W 0.07 | T -0.17 | S -0.53 | L -0.51 | N -0.11 | P -1.32
S302: W -0.56 | G -0.36 | C -0.53 | P -0.74 | F 0.61 | K 0.45 | E -0.24 | T -1.04 | V 0.35 | H 0.54 | R 0.1 | Q -1.84 | Y -0.06 | L -0.93 | D -1.03 | M -1.5 | N -1.18 | I 0.38 | A -0.01
L295: S -0.42 | K -0.07 | H -0.62 | N -1.17 | A -0.91 | G -0.87 | R -0.52 | C -0.2 | F -0.18 | D -1.13 | I 0.11 | W -1.84 | Y -0.02 | T 0.03 | M -0.78 | E -0.95 | P -0.13 | V -0.12 | Q -0.13
C307: Q 0.09 | V -1.17 | L -0.21 | S -0.41 | F -0.36 | R -0.37 | T -0.77 | I -1.65 | A -0.28 | H -0.89 | N -0.37 | K 0.23 | P -0.28 | M -0.59 | E -0.34 | G -0.44 | D 0.04 | W -0.24 | Y 0.26
T294: V 0.14 | N 0.12 | I -0.04 | F 0.01 | H -0.74 | R -0.13 | E -0.33 | Q 0.06 | P 0.04 | A 0.08 | C -0.97 | Y -0.33 | S 0.17 | G 0.5 | D 0.14 | K -0.03 | L 0.29 | M 0.19 | W 0.57
K297: T -0.16 | W -1.48 | Y -0.13 | E 0.15 | R 0.25 | G -0.21 | C -0.07 | F -0.47 | Q -0.3 | H -0.02 | I -0.54 | P 0.02 | D 0.03 | A -0.41 | N 0.46 | V -0.02 | L -0.43 | M 0.17 | S -0.17
Q303: E 0.08 | V 0.37 | S -0.43 | C 0.15 | R -0.45 | W -0.98 | H 0.07 | I 0.25 | L -0.16 | P 0.04 | N -0.9 | K -0.33 | T -0.46 | G 0.2 | Y -0.3 | A -0.65 | D 0.36 | F 0.11 | M -0.16
N304: Q -0.11 | S -0.45 | V -1.11 | F -0.09 | E 0.56 | C -0.06 | W 0.2 | H 0.26 | G 0.09 | A -0.43 | D -0.34 | P -0.2 | T -0.51 | Y -0.11 | I -0.42 | L -0.14 | K 0.07 | M -1.75 | R -0.41
V298: Q -1.06 | D -0.58 | C 0.01 | G -0.37 | K 0.19 | I 0.1 | L -0.21 | P -0.53 | F -1.04 | H -0.85 | T -0.74 | N -0.06 | M 0.21 | A -0.24 | W 0.29 | S -0.15 | R -0.21 | Y -1.36 | E 0.17
A291: L -0.71 | W -1.18 | Q -0.72 | S -0.06 | R 0.01 | V -0.85 | K -0.46 | P 0.02 | F 0.25 | C -0.42 | Y 0.25 | N 0.17 | H -0.89 | I -0.64 | T 0.17 | D -0.71 | E -0.98 | G -0.19 | M -2.2
D292: W -2.02 | L 0.07 | R -1.29 | S -0.12 | P -0.16 | I 0.06 | N -0.13 | G -0.42 | V -0.08 | K -0.24 | M 0.17 | C 0.07 | T -0.67 | Y -0.33 | H -0.19 | Q -1.17 | F -0.23 | A -0.14 | E 0.1
M305: I 0.19 | P -0.21 | A -0.71 | Q -0.28 | S -0.39 | C -0.18 | H -0.9 | F -0.74 | G -0.51 | N -1.05 | K 0.09 | Y -1.05 | V -0.22 | E 0.04 | L -0.06 | W -0.29 | D -0.25 | T 0.02 | R -0.25
F296: S -0.26 | T -0.42 | L -0.05 | I 0.21 | Q -0.65 | P -0.5 | D -0.42 | V -0.33 | G -0.62 | H -0.39 | C -0.18 | A -0.24 | E -1.06 | Y 0.25 | R -0.46 | K -1.28 | M -0.13 | W 0.16 | N -0.63
G306: W -1.81 | P -1.24 | Q -0.33 | N -0.83 | D -0.69 | E -0.55 | K -0.17 | F -0.43 | H 0.17 | R -0.84 | Y -1.16 | I -0.62 | M -1.83 | V -0.76 | C -0.99 | T -0.64 | L -0.44 | A -0.83 | S -0.32
G293: W -0.35 | V -0.73 | H 0.14 | K -0.71 | T 0.13 | N 0.21 | I -0.08 | S -0.48 | A -0.12 | E 0.05 | R -0.02 | P -0.23 | C 0.03 | M -0.11 | Y -0.17 | D 0.2 | L -0.36 | Q 0.3 | F -0.08
Q299: H -0.17 | M -0.25 | K 0.21 | F -0.05 | G -0.02 | L -0.23 | C -1.36 | D 0.16 | I 0.37 | S 0.08 | E 0.61 | A 0.08 | Y -0.66 | V 0.01 | R 0 | P -0.01 | N 0.04 | T 0.05 | W 0.13
